Reference: patent US10590192B2, “Midkine antibody” (Cellmid Limited, priority 2014, dated 2020)
Where a chain is given by its changes, count along the chain named. “Also recorded” adds a separate entry of the source. Values belong to the molecule of their own block, whether it stands above or below them.

Assays:
human midkine protein = target: T1, human midkine protein (Homo sapiens, UniProt P21741); test: UMR106 cell migration inhibition assay (modified Boyden chamber); assay type: cell-based, rat; details: comparison in words
T1 construct: human MK cDNAs comprising the MK coding region flanked by EcoRI restriction sites; made in house; host or cells: Pichia pastoris GS115 (clone T3L-50-4P), secreted into culture supernatant
T1 sequence (P21741 21-143): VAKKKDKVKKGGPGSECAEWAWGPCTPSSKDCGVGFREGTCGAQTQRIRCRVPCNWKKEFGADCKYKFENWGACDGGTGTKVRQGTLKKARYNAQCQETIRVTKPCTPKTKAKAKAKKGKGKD
Procedure: Cell migration assays were performed for each of the preferred candidate humanised IP14 antibodies and the murine IP14 parent antibody to determine the ability of these antibodies to inhibit migration of UMR106 cells to midkine.
The UMR-106 rat osteosarcoma cell line was originally obtained from the American Type Culture Collection, PO Box 1549, Manassas, Va., USA as a frozen stock (catalog no. CRL-1661; batch no. 58494148).
The cells were maintained in: DMEM+Glutamax (DMEM, catalog no. 10569-010 500 mL, lot. no. 778325, Invitrogen/Gibco) supplemented with the following items: Penicillin (10,000 U/mL stock concentration)—Streptomycin (10,000 μg/mL stock concentration) (catalog no. 15140-122 100 mL, lot no. 730849, Invitrogen/Gibco) at a rate of 1 mL/200 mL of DMEM 10% fetal bovine serum (FBS, catalog no. 100099-141, lot no. 6955347Y, Invitrogen/Gibco). The DEM+Glutamax media containing 50 U/mL penicillin, 50 μg/mL streptomycin and 10% FBS is identified as Complete media in this report. The 10% FBS was replaced by 0.3% (w/v) bovine serum albumin (BSA) for the cell migration assays. The BSA was supplied by Sigma-Aldrich, catalog no. A-3192, lot no. 31K1264 and was formulated as a 15% (w/v) stock solution in D-PBS which was sterilized by passage through a 0.22 micron filter and stored at −20° C. prior to use. The cell cultures were maintained in T75 tissue culture-treated flasks in a humidified incubator at approximately 37° C. and 5% carbon dioxide. Cells were sub-cultured twice weekly at a sub-culture ratio ranging from approximately 1:8 to 1:20. Cells were dissociated from the flask by rinsing once with Dulbecco's phosphate buffered saline (DPBS, catalog no. 14190, lot no. 783715, Invitrogen/Gibco) and then incubated with 0.25% Trypsin-EDTA solution (Invitrogen/Gibco) at 37° C. for 2-5 minutes. The cells were then removed by addition of approximately 10 mL of Complete media. The experiments were completed using UMR-106 cells at ˜50 to 75% confluency on the day prior to assay. These cultures were washed once with DMEM and cultured overnight in DMEM containing 0.5% FBS. […]

[1] = target: T2, recombinant human MK (huMK) (Homo sapiens, UniProt P21741); test: ELISA binding of humanised anti-MK antibodies to huMK; details: for binding affinity for huMK compared with murine IP14 precursor antibody: comparison in words; for EC50: ELISA, plates coated with 2 ug/mL huMK, read-out: Binding affinity for huMK, ELISA EC50
T2 sequence (P21741 21-143): T1 sequence (P21741 21-143)
Procedure: (§1) The binding specificity and affinity of the humanised anti-MK antibodies to recombinant human MK (huMK) and murine MK (muMK) was assessed by ELISA. ELISA plates (Nunc Immuno MaxiSorp 96 well flat-bottom were coated with 100 uL of 2 ug/mL of either huMK or muMK in 2% BSA/PBS (overnight at room temperature). After washing, blocking (1 h at 37° C.), and washing again, the humanised anti-MK and chimeric antibodies described in Example 1 were analysed for binding to huMK or muMK at concentrations ranging between 3 μg/ml and 0.00004 μg/ml in 2% BSA/PBS (1 h at 37° C.). After washing, the binding of antibody was detected with goat anti-mouse IgG (Fab specific)-HRP conjugate (Sigma, Cat. No. A9917) and SigmaFast OPD substrate (Sigma, Cat. No. P9187). The reaction was stopped with 3 M HCl, absorbance read at 490 nm on a Dynex Technologies MRX TC II plate reader and the binding curves plotted. Binding affinity data for the humanised anti-MK antibodies to huMK and muMK are presented in Table 6 and Table 7 respectively, and in FIG. 3.
(§2) KD values for hIP14-H5L8, hIP14-H6L3 and hIP14-H6L8 was then compared with the KD values obtained for the corresponding murine IP14 precursor antibody and the chimeric antibody using the methods described in Example 2. […] Based on this finding, these candidate antibodies were produced to 100 mg scale to enable further testing in functional assays to determine biological function.

murine MK (muMK) = target: T3, murine MK (muMK) (Mus musculus, UniProt P12025); test: ELISA binding of humanised anti-MK antibodies to muMK; details: for binding affinity for muMK compared with murine IP14 precursor antibody and chimeric antibody: comparison in words; for EC50: ELISA, plates coated with 2 ug/mL muMK, read-out: Binding affinity for muMK, ELISA EC50
T3 sequence (P12025 23-140): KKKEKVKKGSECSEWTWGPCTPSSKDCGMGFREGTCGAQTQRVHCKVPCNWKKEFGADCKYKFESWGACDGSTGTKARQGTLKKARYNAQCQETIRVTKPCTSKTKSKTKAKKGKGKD
Procedure: as §1, §2

B2: IP14-H6L3: humanised IP14 antibody: VH SEQ ID NO: 7, VL SEQ ID NO: 12 (antibody, V domains shown)
VH: QVQLVQSGGGLVKPGHSLRLSCAASGQSFSSYWMNWVRQAPGKGLEWIGMIHPSDSETILNQKFKDKATLSVDIAKNSAYLQMNSLRAEDTAVYYCSSWSAKRGDFWGQGTLVTVSS
VL: DIVLTQSPATLSLSPGERATLSCRASESISNNLHWYQQKPGQAPRLLIYYASQSISGIPARFSGSGPGTDFTLTISSLEPEDFAVYYCQQSNSWPLTFGGGTKLEIKR
modifications: Variable region heavy chain humanised variant 6 (VH6); Variable region light chain humanised variant 3 (VL3)
inhibition of UMR-106 cell migration compared with murine IP14 precursor antibody (human midkine protein): more effective; also recorded: greater efficacy | binding affinity for huMK compared with murine IP14 precursor antibody [1]: better binding affinity | binding affinity for muMK compared with murine IP14 precursor antibody and chimeric antibody (murine MK (muMK)): better binding affinity

B3: IP14-H6L8: humanised IP14 antibody: VH SEQ ID NO: 7, VL SEQ ID NO: 17 (antibody, V domains shown)
VH: B2 VH
VL: B2 VL with G41H, I58V, P67S, L78V, G100Q, L104V
modifications: Variable region heavy chain humanised variant 6 (VH6); Variable region light chain humanised variant 8 (VL8)
inhibition of UMR-106 cell migration compared with murine IP14 precursor antibody (human midkine protein): more effective; also recorded: greater efficacy | binding affinity for huMK compared with murine IP14 precursor antibody [1]: better binding affinity | binding affinity for muMK compared with murine IP14 precursor antibody and chimeric antibody (murine MK (muMK)): better binding affinity

B4: IP14-H4L7: humanised IP14 antibody: VH SEQ ID NO: 5, VL SEQ ID NO: 16 (antibody, V domains shown)
VH: QVQLVQSGAEVKKPGASVKVSCKASGYTFTSYYMHWVRQAPGQGLEWMGIIHPSGGSTSYAQKFQGRVTMTRDTSTSTVYMELSSLRSEDTAVYYCARWSAKRGDFWGQGTLVTVSS
VL: B2 VL with T20N, G41H, I58V, P67S, T72N, L78V, G100Q, L104V
modifications: Variable region heavy chain humanised variant 4 (VH4); Variable region light chain humanised variant 7 (VL7)
EC50 [1]: > 10 nM | EC50 (murine MK (muMK)): > 10 nM

More lines, main results first:

binding affinity for huMK compared with murine IP14 precursor antibody [1]: better binding affinity | binding affinity for muMK compared with murine IP14 precursor antibody and chimeric antibody (murine MK (muMK)): better binding affinity
B1: IP14-H5L8: humanised IP14 antibody: VH SEQ ID NO: 6, VL SEQ ID NO: 17 (antibody, V domains shown)
VH: B2 VH with K13Q, H16G, K43Q, S71T, A75S, S78T
VL: B2 VL with G41H, I58V, P67S, L78V, G100Q, L104V
modifications: Variable region heavy chain humanised variant 5 (VH5); Variable region light chain humanised variant 8 (VL8)
inhibition of UMR-106 cell migration compared with murine IP14 precursor antibody (human midkine protein): more effective; also recorded: greater efficacy

EC50 [1]: > 10 nM | EC50 (murine MK (muMK)): > 10 nM
B5: IP14-H4L8: humanised IP14 antibody: VH SEQ ID NO: 5, VL SEQ ID NO: 17 (antibody, V domains shown)
VH: B4 VH
VL: B2 VL with G41H, I58V, P67S, L78V, G100Q, L104V
modifications: Variable region heavy chain humanised variant 4 (VH4); Variable region light chain humanised variant 8 (VL8)
